Assay results reported in US20240158505A1 (published 2024).
Changes are numbered by the printed parent chain.

T1: Recombinant Human B7-H3 Fc chimera Protein (Rndsystem, Cat #1027-B3-100) (human, UniProt Q5ZPR3 29-245)
T1 chain: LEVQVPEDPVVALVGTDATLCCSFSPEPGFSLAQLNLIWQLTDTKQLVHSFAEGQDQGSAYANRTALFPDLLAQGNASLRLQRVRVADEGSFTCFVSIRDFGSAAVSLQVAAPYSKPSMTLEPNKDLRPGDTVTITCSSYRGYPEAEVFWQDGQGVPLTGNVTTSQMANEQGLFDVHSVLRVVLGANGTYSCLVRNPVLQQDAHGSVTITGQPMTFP

B1: #4 antibody (antibody, V domains shown)
VH: EVQLLESGGGLVQPGGSLRLSCAASGFTFSSYGMHWVRQAPGKGLEWVSAISGSGTSIYYANSVKSRFTISRDNSKNTLYLQMNSLRAEDTAVYYCARGAGWFDYWGQGTLVTVSS
VL: QSVLTQPPSASGTPGQRVTISCSGSTSNIGSNTVNWYQQLPGTAPKLLIYGKNIRPNGVPDRFSGSKSGTSASLAISGLHSEDEADYYCQSYDSSLSGWVFGGGTKLTVL
B2: #8 antibody (antibody, V domains shown)
VH: EVQLLESGGGLVQPGSSLRLSCAASGFTFSSYWISWVRQAPGKGLEWVSEISPSGNTNYNPSLKSRFTISRDNSKNTLYLQMNSLRAEDTAVYYCAREVGDLLDYWGQGTLVTVSS
VL: QSVLTQPPSASGTPGQRVTISCSGSNIGNNYVSWYQQLPGTAPKLLIYQDSKRPSGVPDRFSGSKSGTSASLAISGLRSEDEADYYCLVWDRSSDHFVFGGGTKLTVL
B3: #2 antibody (antibody, V domains shown)
VH: EVQLLESGGGLVQPGGSLRLSCAASGFTFSAYYMIWVRQAPGKGLEWVSITNPSGGVTSYAQKFQGRFTISRDNSKNTLYLQMNSLRAEDTAVYYCARVGGRGFDIWGQGTLVTVSS
VL: EIVLTQSPGTLSLSPGERATLSCHASQGISNYVAWYQQKPGQAPRLLIYDASNRATGIPDRFSGSGSGTDFTLTISHLEPEDFAVYYCQQSYSTLLTFGQGTKVEIK
B4: #5 antibody (antibody, V domains shown)
VH: EVQLLESGGGLVQPGGSLRLSCAASGFTFSTYAMSWVRQAPGKGLEWVSAISGSGGSTLYADSVKGRFTISRDNSKNTLYLQMNSLRAEDTAVYYCARGGSATWAFDLWGQGTLVTVSS
VL: QSVLTQPPSASGTPGQRVTISCSGSSSNIGSNYVYWYQQLPGTAPKLLIYRNNQRPSGVPDRFSGSKSGTSASLAISGLRSEDEADYYCGTWDSSLSGVVFGGGTKLTVL
B5: #3 antibody (antibody, V domains shown)
VH: EVQLLESGGGLVQPGGSLRLSCAASGFTFSTYYMTWVRQAPGKGLEWVSIINPRGGSTSYAEKFQGRFTISRDNSKNTLYLQMNSLRAEDTAVYYCARWNLGMDVWGQGTLVTVSS
VL: EIVLTQSPGTLSLSPGERATLSCRVSQSISSYLNWYQQKPGQAPRLLIYDASHRATGIPDRFSGSGSGTDFTLTISRLEPEDFAVYYCQQYYAPSVTFGQGTKVEIK
B6: #7 antibody (antibody, V domains shown)
VH: EVQLLESGGGLVQPGGSLRLSCAASGFTFSNFWIGWVRQAPGKGLEWVSWINPPGSITSYADSVKGRFTISRDNSKDTLYLQMNSLRAEDTAVYYCAREVGDVLDYWGQGTLVTVSS
VL: QSVLTQPPSASGTPGQRVTISCTGTSSDIGRYNYVSWYQQLPGTAPKLLIYRNTQRPSGVPDRFSGSKSGTSASLAISGLRSEDEADYYCGTWDSSLNAYVFGGGTKLTVL
B7: #1 antibody (antibody, V domains shown)
VH: EVQLLESGGGLVQPGGSLRLSCAASGFTFSSYAMSWVRQAPGKGLEWVSTITGSGGSTYYADSVKGRFTISRDNSKNTLYLQMNSLRAEDTAVYYCARYKSGAFDIWGQGTLVTVSS
VL: EIVLTQSPGTLSLSPGERATLSCRASQGIGNYLGWYQQKPGQAPRLLIYTASSLQSGIPDRFSGSGSGTDFTLTISRLEPEDFAVYYCQQGYSTPSWTFGQGTKVEIK
B8: #6 antibody (antibody, V domains shown)
VH: EVQLLESGGGLVQPGGSLRLSCAASGFTFSTYAISWVRQAPGKGLEWVSSIYYSGYTHYNPSLESRFTISRDNSKNTLYLQMNSLRAEDTAVYYCARGYSGWMDVWGQGTLVTVSS
VL: QSVLTQPPSASGTPGQRVTISCGGNNIGSKSVHWYQQLPGTAPKLLIYDNNKRPSGVPNRFSGSKSGTSASLAISGLRSEDEADYYCAAWDDSLNVPVFGGGTKLTVL
B9: #9 antibody (antibody, V domains shown)
VH: EVQLLESGGGLVQPGGSLRLSCAASGFTFSSYAMNWVRQAPGKGLEWVSTISGSGGQTYYADSVKGRFTISRDNSKNTLYLQMNSLRAEDTAVYYCARWRSIWAFDYWGQGTLVTVSS
VL: B8 VL with G23S, G24D, N59D, A88G, A89T, N95S, V96G

target: B7-H3 expressed on the cell membrane (MCF-7, RKO and RKO/B7H3 cell lines) (UniProt Q5ZPR3); test: cell ELISA on fixed MCF-7 cells
Sequence (Q5ZPR3 29-534): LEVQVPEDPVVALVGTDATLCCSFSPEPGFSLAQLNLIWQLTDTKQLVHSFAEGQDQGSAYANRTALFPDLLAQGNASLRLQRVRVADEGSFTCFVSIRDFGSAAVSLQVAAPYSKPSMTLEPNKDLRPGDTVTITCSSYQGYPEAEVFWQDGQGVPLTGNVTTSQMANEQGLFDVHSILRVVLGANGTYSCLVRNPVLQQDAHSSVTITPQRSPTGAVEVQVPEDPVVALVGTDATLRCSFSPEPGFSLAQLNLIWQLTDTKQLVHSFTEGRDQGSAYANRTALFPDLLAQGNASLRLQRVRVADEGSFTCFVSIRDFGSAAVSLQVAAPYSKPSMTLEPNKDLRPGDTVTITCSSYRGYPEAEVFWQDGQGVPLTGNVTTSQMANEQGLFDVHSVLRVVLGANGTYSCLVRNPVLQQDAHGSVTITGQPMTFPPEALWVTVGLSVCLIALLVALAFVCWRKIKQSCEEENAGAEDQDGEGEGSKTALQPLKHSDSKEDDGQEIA

Binder | EC50
B1 | 0.502 nM
B2 | 0.159 nM
B3 | 0.061 nM
B4 | 1.74 nM
B5 | 0.197 nM
B6 | 1.01 nM
B7 | 0.605 nM
B8 | 0.234 nM
B9 | 0.322 nM

target: B7-H3 expressed on the cell membrane (MCF-7, RKO and RKO/B7H3 cell lines) (UniProt Q5ZPR3); test: cell ELISA on fixed RKO/B7H3 cells

Binder | EC50
B1 | 0.042 nM
B2 | 0.06 nM
B3 | 0.036 nM
B4 | 0.091 nM
B5 | 0.065 nM
B6 | 0.187 nM
B7 | 0.015 nM
B8 | 0.065 nM
B9 | 0.05 nM

Target: T1, Recombinant Human B7-H3 Fc chimera …
Test: ELISA

Binder | EC50
B1 | 0.55 nM
B2 | 0.63 nM
B3 | 0.42 nM
B4 | 1.2 nM
B5 | 1.1 nM
B6 | 1.8 nM
B7 | 0.18 nM
B8 | 1.86 nM
B9 | 1.1 nM
